Laboratory results: article PMC3260246 (PLoS ONE, 2012)

Target: the molecule itself
Test: multi-angle light scattering; molar mass and hydrodynamic radius of wild-type and R12A proteins, ASTRA 5.3.4; conditions as in refs 32, 58

Row | Protein | binding result
1 | wild-type human αB-crystallin (natural protein, UniProt P02511 1-175, looked up, αB-crystallin, human; The reverse primer carries no stop codon; Large oligomer (molar mass about 4.8e5 g/mol by light scattering); also called αBWt; Wt αB-crystallin; source: E. coli BL21(DE3), purified (gel filtration, ion-exchange chromatography)) MDIAIHHPWIRRPFFPFHSPSRLFDQFFGEHLLESDLFPTSTSLSPFYLRPPSFLRAPSWFDTGLSEMRLEKDRFSVNLDVKHFSPEELKVKVLGDVIEVHGKHEERQDEHGFISREFHRKYRIPADVDPLTITSSLSSDGVLTVNGPRKQVSGPERTIPITREEKPAVTAAPKK | binds
2 | αA-crystallin R12A mutant (natural protein, human, UniProt P02489 1-173, looked up) MDVTIQHPWFKATLGPFYPSRLFDQFFGEGLFEYDLLPFLSSTISPYYRQSLFRTVLDSGISEVRSDRDKFVIFLDVKHFSPEDLTVKVQDDFVEIHGKHNERQDDHGYISREFHRRYRLPSNVDQSALSCSLSADGMLTFCGPKIQTGLDATHAERAIPVSREEKPTSAPSS | binds
3 | αB-crystallin R12A mutant (natural protein, human, UniProt P02511 1-175, looked up, αB-crystallin, human, R12A made by site-directed mutagenesis on the Wt cDNA in pET23a; Same construct as m3 with R12A; also called αB_(R12A); source: E. coli BL21(DE3), purified (gel filtration, ion-exchange chromatography)) MDIAIHHPWIRAPFFPFHSPSRLFDQFFGEHLLESDLFPTSTSLSPFYLRPPSFLRAPSWFDTGLSEMRLEKDRFSVNLDVKHFSPEELKVKVLGDVIEVHGKHEERQDEHGFISREFHRKYRIPADVDPLTITSSLSSDGVLTVNGPRKQVSGPERTIPITREEKPAVTAAPKK | binds
